Tests used:
[1] = biological target: recombinant human Fc gamma receptor CD16a 158V (FcRγIIIa) (human, UniProt P08637 17-208)
[2] = biological target: recombinant human Fc gamma receptor CD16a 158F (FcRγIIIa) (human, UniProt P08637 17-208)
[3] = biological target: T1, recombinant human Fc gamma receptor CD32a 131R (human, UniProt P12318 36-218)
T1 sequence (looked up): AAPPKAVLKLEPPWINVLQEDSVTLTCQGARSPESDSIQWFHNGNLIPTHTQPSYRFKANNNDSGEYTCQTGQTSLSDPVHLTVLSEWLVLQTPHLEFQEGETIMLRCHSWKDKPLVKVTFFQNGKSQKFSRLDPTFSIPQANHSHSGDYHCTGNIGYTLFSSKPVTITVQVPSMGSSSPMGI

[4] = biological target: T2, recombinant human Fc gamma receptor CD32b/c (human, UniProt P31994 46-217)
T2 sequence (looked up): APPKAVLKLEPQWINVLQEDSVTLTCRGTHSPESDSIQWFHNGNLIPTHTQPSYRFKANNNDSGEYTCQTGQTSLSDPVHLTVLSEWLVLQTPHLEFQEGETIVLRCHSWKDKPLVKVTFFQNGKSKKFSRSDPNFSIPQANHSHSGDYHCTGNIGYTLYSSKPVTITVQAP

[5] = biological target: T3, recombinant human Fc gamma receptor CD32a 131H (human, UniProt P12318 36-218)
T3 sequence (looked up): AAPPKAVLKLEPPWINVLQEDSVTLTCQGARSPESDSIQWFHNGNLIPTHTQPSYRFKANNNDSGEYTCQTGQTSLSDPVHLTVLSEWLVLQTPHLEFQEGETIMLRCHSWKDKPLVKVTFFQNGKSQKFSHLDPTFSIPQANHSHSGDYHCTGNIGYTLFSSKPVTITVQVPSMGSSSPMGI

[6] = biological target: recombinant human Fc gamma receptor CD16b (FcRγIIIb) (human, UniProt O75015 17-200)
Chain of recombinant human Fc gamma receptor CD16b (FcRγIIIb) (O75015 17-200 limits assumed): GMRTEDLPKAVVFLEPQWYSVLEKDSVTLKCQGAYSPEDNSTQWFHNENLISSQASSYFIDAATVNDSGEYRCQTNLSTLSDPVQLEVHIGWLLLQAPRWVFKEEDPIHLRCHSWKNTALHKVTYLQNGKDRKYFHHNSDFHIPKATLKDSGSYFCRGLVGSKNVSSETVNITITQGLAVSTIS

CD20 Lipoparticles = biological target: T4, CD20 Lipoparticles (UniProt P11836 1-297)
T4 sequence (looked up): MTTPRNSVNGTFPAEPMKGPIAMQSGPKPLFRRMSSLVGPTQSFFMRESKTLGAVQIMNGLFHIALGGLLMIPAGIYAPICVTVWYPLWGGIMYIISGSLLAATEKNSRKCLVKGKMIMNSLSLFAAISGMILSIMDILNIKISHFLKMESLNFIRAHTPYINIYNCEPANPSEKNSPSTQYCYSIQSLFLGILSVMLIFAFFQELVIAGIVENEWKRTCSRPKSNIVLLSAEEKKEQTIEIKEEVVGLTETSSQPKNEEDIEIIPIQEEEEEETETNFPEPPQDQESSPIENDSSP

[7] = biological target: recombinant human Fc gamma receptor CD64 (FcRγI) (human, UniProt P12314 16-288)
Chain of recombinant human Fc gamma receptor CD64 (FcRγI) (P12314 16-288 limits assumed): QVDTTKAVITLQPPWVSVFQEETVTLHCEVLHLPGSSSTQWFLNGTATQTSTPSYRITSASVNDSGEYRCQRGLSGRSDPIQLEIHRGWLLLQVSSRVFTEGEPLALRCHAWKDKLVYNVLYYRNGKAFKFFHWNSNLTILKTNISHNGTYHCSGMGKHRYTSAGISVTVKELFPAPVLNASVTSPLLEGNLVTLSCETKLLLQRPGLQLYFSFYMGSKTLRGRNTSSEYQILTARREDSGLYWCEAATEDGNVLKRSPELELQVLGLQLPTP

CD19 = biological target: T5, CD19 (UniProt P15391 20-291)
T5 sequence (looked up): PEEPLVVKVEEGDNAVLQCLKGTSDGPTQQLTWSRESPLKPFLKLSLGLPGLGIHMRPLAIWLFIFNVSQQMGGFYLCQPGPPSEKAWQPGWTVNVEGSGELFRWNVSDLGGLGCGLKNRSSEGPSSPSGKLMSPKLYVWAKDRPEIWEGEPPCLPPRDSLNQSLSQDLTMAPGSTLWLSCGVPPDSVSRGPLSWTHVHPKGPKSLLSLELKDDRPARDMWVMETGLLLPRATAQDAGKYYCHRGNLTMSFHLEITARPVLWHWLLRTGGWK

Chain of recombinant human Fc gamma receptor CD16a 158F (FcRγIIIa) (P08637 17-208 limits assumed): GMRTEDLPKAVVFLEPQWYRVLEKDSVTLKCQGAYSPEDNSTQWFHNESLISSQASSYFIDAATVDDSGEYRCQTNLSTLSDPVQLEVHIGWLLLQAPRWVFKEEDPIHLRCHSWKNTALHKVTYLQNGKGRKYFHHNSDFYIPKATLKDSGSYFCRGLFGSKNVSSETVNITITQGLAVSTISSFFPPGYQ
Chain of recombinant human Fc gamma receptor CD16a 158V (FcRγIIIa) (P08637 17-208 F176V limits assumed): as the sequence (P08637 17-208 limits assumed) above, with F160V counted along it

B1: Rc66SIDE (One-arm antibody) (antibody, human IgG1, kappa)
light: QIVLSQSPAILSASPGEKVTMTCRASSSVSYIHWFQQKPGSSPKPWIYATSNLASGVPVRFSGSGSGTSYSLTISRVEAEDAATYYCQQWTSNPPTFGGGTKLEIKRTVAAPSVFIFPPSDEQLKSGTASVVCLLNNFYPREAKVQWKVDNALQSGNSQESVTEQDSKDSTYSLSSTLTLSKADYEKHKVYACEVTHQGLSSPVTKSFNRGEC
heavy: QVQLQQPGAELVKPGASVKMSCKASGYTFTSYNMHWVKQTPGRGLEWIGAIYPGNGDTSYNQKFKGKATLTADKSSSTAYMQLSSLTSEDSAVYYCARSTYYGGDWYFNVWGAGTTVTVSAASTKGPSVFPLAPSSKSTSGGTAALGCLVKDYFPEPVTVSWNSGALTSGVHTFPAVLQSSGLYSLSSVVTVPSSSLGTQTYICNVNHKPSNTKVDKKAEPKSCDKTHTCPPCPAPELLGGPDVFLFPPKPKDTLMISRTPEVTCVVVDVSHEDPEVKFNWYVDGVEVHNAKTKPREEQYNSTYRVVSVLTVLHQDWLNGKEYKCKVSNKALPAPEEKTISKAKGQPREPQVYVLPPSRDELTKNQVSLLCLVKGFYPSDIAVEWESNGQPENNYLTWPPVLDSDGSFFLYSKLTVDKSRWQQGNVFSCSVMHEALHNHYTQKSLSLSPGK
chain: CPPCPAPELLGGPDVFLFPPKPKDTLMISRTPEVTCVVVDVSHEDPEVKFNWYVDGVEVHNAKTKPREEQYNSTYRVVSVLTVLHQDWLNGKEYKCKVSNKALPAPEEKTISKAKGQPREPQVYVYPPSRDELTKNQVSLTCLVKGFYPSDIAVEWESNGQPENNYKTTPPVLDSDGSFALVSKLTVDKSRWQQGNVFSCSVMHEALHNHYTQKSLSLSPGK
B1 was tested, and the Kd [1] was 46.2 nM, the Kd [2] was 76.8 nM and the Kd [3] was 202 nM. For the same binder, the Kd [4] was 253 nM, the Kd [5] was 255 nM and the Kd [6] was 163 nM. For the same binder, the Kd (CD20 Lipoparticles) was 21.4 nM.

B2: Rc66SIDE-P28-Rc66SIDE (antibody, human IgG1, kappa)
light: QIVLSQSPAILSASPGEKVTMTCRASSSVSYIHWFQQKPGSSPKPWIYATSNLASGVPVRFSGSGSGTSYSLTISRVEAEDAATYYCQQWTSNPPTFGGGTKLEIKRTVAAPSVFIFPPSDEQLKSGTASVVCLLNNFYPREAKVQWKVDNALQSGNSQESVTEQDSKDSTYSLSSTLTLSKADYEKHKVYACEVTHQGLSSPVTKSFNRGEC
heavy: QVQLQQPGAELVKPGASVKMSCKASGYTFTSYNMHWVKQTPGRGLEWIGAIYPGNGDTSYNQKFKGKATLTADKSSSTAYMQLSSLTSEDSAVYYCARSTYYGGDWYFNVWGAGTTVTVSAASTKGPSVFPLAPSSKSTSGGTAALGCLVKDYFPEPVTVSWNSGALTSGVHTFPAVLQSSGLYSLSSVVTVPSSSLGTQTYICNVNHKPSNTKVDKKAEPKSCDKTHTCPPCPAPELLGGPDVFLFPPKPKDTLMISRTPEVTCVVVDVSHEDPEVKFNWYVDGVEVHNAKTKPREEQYNSTYRVVSVLTVLHQDWLNGKEYKCKVSNKALPAPEEKTISKAKGQPREPQVYVLPPSRDELTKNQVSLLCLVKGFYPSDIAVEWESNGQPENNYLTWPPVLDSDGSFFLYSKLTVDKSRWQQGNVFSCSVMHEALHNHYTQKSLSLSPGK
chain: CPPCPAPELLGGPDVFLFPPKPKDTLMISRTPEVTCVVVDVSHEDPEVKFNWYVDGVEVHNAKTKPREEQYNSTYRVVSVLTVLHQDWLNGKEYKCKVSNKALPAPEEKTISKAKGQPREPQVYVYPPSRDELTKNQVSLTCLVKGFYPSDIAVEWESNGQPENNYKTTPPVLDSDGSFALVSKLTVDKSRWQQGNVFSCSVMHEALHNHYTQKSLSLSPGK
B2 showed a Kd [7] of 1.14 nM, a Kd [1] of 4.98 nM and a Kd [2] of 6.62 nM. For the same binder, the Kd [3] was 8.11 nM, the Kd [4] was 7.28 nM and the Kd [5] was 5.42 nM. The Kd [6] was 5.64 nM and the Kd (CD20 Lipoparticles) was < 0.001 nM.

B3: Rc66SIDE-P4-Rc66SIDE (antibody, human IgG1, kappa)
light: QIVLSQSPAILSASPGEKVTMTCRASSSVSYIHWFQQKPGSSPKPWIYATSNLASGVPVRFSGSGSGTSYSLTISRVEAEDAATYYCQQWTSNPPTFGGGTKLEIKRTVAAPSVFIFPPSDEQLKSGTASVVCLLNNFYPREAKVQWKVDNALQSGNSQESVTEQDSKDSTYSLSSTLTLSKADYEKHKVYACEVTHQGLSSPVTKSFNRGEC
heavy: QVQLQQPGAELVKPGASVKMSCKASGYTFTSYNMHWVKQTPGRGLEWIGAIYPGNGDTSYNQKFKGKATLTADKSSSTAYMQLSSLTSEDSAVYYCARSTYYGGDWYFNVWGAGTTVTVSAASTKGPSVFPLAPSSKSTSGGTAALGCLVKDYFPEPVTVSWNSGALTSGVHTFPAVLQSSGLYSLSSVVTVPSSSLGTQTYICNVNHKPSNTKVDKKAEPKSCDKTHTCPPCPAPELLGGPDVFLFPPKPKDTLMISRTPEVTCVVVDVSHEDPEVKFNWYVDGVEVHNAKTKPREEQYNSTYRVVSVLTVLHQDWLNGKEYKCKVSNKALPAPEEKTISKAKGQPREPQVYVLPPSRDELTKNQVSLLCLVKGFYPSDIAVEWESNGQPENNYLTWPPVLDSDGSFFLYSKLTVDKSRWQQGNVFSCSVMHEALHNHYTQKSLSLSPGK
chain: CPPCPAPELLGGPDVFLFPPKPKDTLMISRTPEVTCVVVDVSHEDPEVKFNWYVDGVEVHNAKTKPREEQYNSTYRVVSVLTVLHQDWLNGKEYKCKVSNKALPAPEEKTISKAKGQPREPQVYVYPPSRDELTKNQVSLTCLVKGFYPSDIAVEWESNGQPENNYKTTPPVLDSDGSFALVSKLTVDKSRWQQGNVFSCSVMHEALHNHYTQKSLSLSPGK
In the case of B3, the Kd [7] is reported as < 0.001 nM, the Kd [1] is reported as 1.14 nM and the Kd [2] is reported as 3.87 nM. For the same binder, the Kd [3] was 4.93 nM, the Kd [4] was 3.17 nM and the Kd [5] was 2.54 nM. For the same binder, the Kd [6] was 1.05 nM and the Kd (CD20 Lipoparticles) was < 0.001 nM.

B4: Rc66SIDE-P16-Rc66SIDE (antibody, human IgG1, kappa)
light: QIVLSQSPAILSASPGEKVTMTCRASSSVSYIHWFQQKPGSSPKPWIYATSNLASGVPVRFSGSGSGTSYSLTISRVEAEDAATYYCQQWTSNPPTFGGGTKLEIKRTVAAPSVFIFPPSDEQLKSGTASVVCLLNNFYPREAKVQWKVDNALQSGNSQESVTEQDSKDSTYSLSSTLTLSKADYEKHKVYACEVTHQGLSSPVTKSFNRGEC
heavy: QVQLQQPGAELVKPGASVKMSCKASGYTFTSYNMHWVKQTPGRGLEWIGAIYPGNGDTSYNQKFKGKATLTADKSSSTAYMQLSSLTSEDSAVYYCARSTYYGGDWYFNVWGAGTTVTVSAASTKGPSVFPLAPSSKSTSGGTAALGCLVKDYFPEPVTVSWNSGALTSGVHTFPAVLQSSGLYSLSSVVTVPSSSLGTQTYICNVNHKPSNTKVDKKAEPKSCDKTHTCPPCPAPELLGGPDVFLFPPKPKDTLMISRTPEVTCVVVDVSHEDPEVKFNWYVDGVEVHNAKTKPREEQYNSTYRVVSVLTVLHQDWLNGKEYKCKVSNKALPAPEEKTISKAKGQPREPQVYVLPPSRDELTKNQVSLLCLVKGFYPSDIAVEWESNGQPENNYLTWPPVLDSDGSFFLYSKLTVDKSRWQQGNVFSCSVMHEALHNHYTQKSLSLSPGK
chain: CPPCPAPELLGGPDVFLFPPKPKDTLMISRTPEVTCVVVDVSHEDPEVKFNWYVDGVEVHNAKTKPREEQYNSTYRVVSVLTVLHQDWLNGKEYKCKVSNKALPAPEEKTISKAKGQPREPQVYVYPPSRDELTKNQVSLTCLVKGFYPSDIAVEWESNGQPENNYKTTPPVLDSDGSFALVSKLTVDKSRWQQGNVFSCSVMHEALHNHYTQKSLSLSPGK
In the case of B4, the Kd [7] is reported as < 0.001 nM, the Kd [1] is reported as 0.257 nM and the Kd [2] is reported as 2.71 nM. The Kd [3] was 1.83 nM, the Kd [4] was 0.556 nM and the Kd [5] was 0.808 nM. For the same binder, the Kd [6] was < 0.001 nM and the Kd (CD20 Lipoparticles) was < 0.001 nM.

B5: B19c66AAC9 (one-arm antibody) (antibody, human IgG1, kappa)
light: not shown
heavy: QVQLQQSGAELVRPGSSVKISCKASGYAFSSYWMNWVKQRPGQGLEWIGQIWPGDGDTNYNGKFKGKATLTADESSSTAYMQLSSLASEDSAVYFCARRETTTVGRYYYAMDYWGQGTTVTVSSASTKGPSVFPLAPSSKSTSGGTAALGCLVKDYFPEPVTVSWNSGALTSGVHTFPAVLQSSGLYSLSSVVTVPSSSLGTQTYICNVNHKPSNTKVDKKVEPKSCDKTHTCPPCPAPKRRGGPSVFLFPPKPKDTLMISRTPEVTCVVVDVSHEDPEVKFNWYVDGVEVHNAKTKPREEQYNSTYRVVSVLTVLHQDWLNGKEYKCKVSNKALPAPIEKTISKAKGQPREPQVYVLPPSRDELTKNQVSLLCLVKGFYPSDIAVEWESNGQPENNYLTWPPVLDSDGSFFLYSKLTVDKSRWQQGNVFSCSVMHEALHNHYTQKSLSLSPGK
chain: CPPCPAPEDEGGPSVFLFPPKPKDTLMISRTPEVTCVVVDVSHEDPEVKFNWYVDGVEVHNAKTKPREEQYNSTYRVVSVLTVLHQDWLNGKEYKCKVSNKALPAPIEKTISKAKGQPREPQVYVYPPSRDELTKNQVSLTCLVKGFYPSDIAVEWESNGQPENNYKTTPPVLDSDGSFALVSKLTVDKSRWQQGNVFSCSVMHEALHNHYTQKSLSLSPGK
B5 was tested, and the Kd (CD19) was 21 nM.

From patent US20230220115A1 (BIOMOLECULAR, published 2023)
